Laboratory results taken from patent publication US12492490 (University of California, dated 2025).

Target: T1, human ephrin type-A receptor 2 (EphA2) (human, UniProt P29317 24-976)
T1 construct: whole, on cells; also called NP_004422
Assay: not described

T1 sequence (P29317 24-976): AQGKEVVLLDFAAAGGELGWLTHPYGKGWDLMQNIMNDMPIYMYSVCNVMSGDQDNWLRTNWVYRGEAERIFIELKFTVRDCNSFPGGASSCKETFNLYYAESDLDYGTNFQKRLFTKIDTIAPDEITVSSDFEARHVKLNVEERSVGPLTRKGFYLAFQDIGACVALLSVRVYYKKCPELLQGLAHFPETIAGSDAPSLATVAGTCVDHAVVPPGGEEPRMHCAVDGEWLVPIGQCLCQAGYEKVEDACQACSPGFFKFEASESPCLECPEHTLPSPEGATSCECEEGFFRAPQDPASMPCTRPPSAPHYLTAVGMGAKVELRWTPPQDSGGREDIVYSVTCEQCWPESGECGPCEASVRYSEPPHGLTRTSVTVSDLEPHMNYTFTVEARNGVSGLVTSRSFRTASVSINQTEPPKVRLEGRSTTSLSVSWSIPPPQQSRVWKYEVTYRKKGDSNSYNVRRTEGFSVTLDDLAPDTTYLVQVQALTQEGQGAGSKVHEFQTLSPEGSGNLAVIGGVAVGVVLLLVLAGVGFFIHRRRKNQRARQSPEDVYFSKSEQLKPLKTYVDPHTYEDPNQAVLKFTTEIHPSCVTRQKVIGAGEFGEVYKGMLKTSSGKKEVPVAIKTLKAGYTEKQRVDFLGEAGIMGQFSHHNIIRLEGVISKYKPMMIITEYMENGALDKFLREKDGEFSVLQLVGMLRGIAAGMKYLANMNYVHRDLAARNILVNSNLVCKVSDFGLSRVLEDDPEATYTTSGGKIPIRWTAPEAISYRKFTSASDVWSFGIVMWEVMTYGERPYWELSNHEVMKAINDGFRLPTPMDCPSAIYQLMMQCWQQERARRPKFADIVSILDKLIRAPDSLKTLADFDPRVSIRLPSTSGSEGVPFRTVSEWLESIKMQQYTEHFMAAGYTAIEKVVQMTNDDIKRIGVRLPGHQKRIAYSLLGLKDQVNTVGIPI

Row | Binder | binding result
1 | HCA-S1 (antibody, V domains shown, also called IgG HCA-S1) VH: QVQLQESGGGLVQPGGSLRLSCAASGFTFSSYAMHWVRQAPGKGLEWVAVISYDGSNKYYADSVKGRFTISRDNSKNTLYLQMNSLRAEDTAVYYCARFSSGWYYFDYWGQGTLVTVSS VL: DIQMTQSPSFLSASVGDRITITCRASHDISSYFAWYQQKPGKAPKPLIYAASTLQSGVPSRFSGSGSGTEFTLTISSLQPEDFATYYCQQLGSYPLTFGGGTKLEIK | no binding
2 | HCA-M1 (antibody, V domains shown, also called IgG HCA-M1) VH: QVQLVESGGGVVQPGRSLRLSCAASGFTFSSYAMHWVRQAPGKGLEWVAVISYDGSNKYYADSVKGRFTISRDNSKNTLYLQMNSLRAEDTAVYYCARAPAYSYGPFDYWGQGTLVTVSS VL: SSELTQDPAVSVALGQTVRITCQGDSLRSYYASWYQQKPGQAPVLVIYGKNNRPSGIPDRFSGSSSGNTASLTITGAQAEDEADYYCHSRDSSGTHLRVFGGGTKVTVL | no binding
